# Experimental data published in PMC13199644, “Optimized Quantitative Bacterial Two-Hybrid (qB2H) for Protein–Protein Interaction Assessment” (Computational and Structural Biotechnology Journal, 2026).
# Test system: Spo22p
# Assay: qB2H v3 fluorescence, Spo22p vs ECM11
# Assay type: cell-based, Saccharomyces cerevisiae
# Conditions: Acella, qB2H v3, cI-Spo22p 786-886, IPTG(200µM) + ATC (200ng/mL)
# Procedure: Precultures of untransformed (for intrinsic fluorescence evaluation) and transformed SB39 cells were diluted (3 μl into 300 μl of fresh medium) in 2-ml microtubes and grown in ThermoMixer C (Eppendorf; 37 °C at 900 rpm) for 2 h. Cultures with an OD600 of approximately 0.5 were then mixed with 100 μl of the same medium containing 4× inducer concentration. […] The induced cultures were grown overnight at 18 °C, diluted (1 μl) in freshly filtered (0.22 μm) phosphate-buffered saline buffer (1 ml per OD unit), and analyzed using guava easyCyte HT (488-nm blue laser). The gating for event analysis was set to minimize background noise (fewer than 100 gated events per 10 μl of sterile phosphate-buffered saline). Ten thousand events were collected per culture, and the MFI was recorded. To allow comparison across independent experiments, SB39 cells cotransformed with VN519 (pBRα-rpoA-ip3_mut3A) and VN550 (pAC-cI_E34P-ASF1A_Term_f1-pOL2-62_L-eGFP-KanR) or VN517 (pBRα-rpoA-ip3) and VN550 were included as internal controls. […]
# MFI(x) represents the MFI of a given condition or culture. MFI(low) corresponds to the fluorescence produced by SB39 cells cotransformed with VN519 and VN550, indicating no detectable interaction (Kd > 100,000 nM). […]
# Interactions involving distinct protein domains and folding variants were assessed using qB2H systems v1, v2, and v3. […]
molecule,measurement,value
"ECM11: Q04110 1-302, Saccharomyces cerevisiae (protein, UniProt Q04110 1-302, looked up) Protein ECM11: MTVIKTEPTTEVTLYSPPSKESLSKDDAHRKKQNNKPPSSINSRSGPNKHKLAAKAPEKKINNTDKQDLSAFLLNPSLIVKPSESKKKENIVAYNDTPGIKTEHTAFQPLTPISKKRALKEKAASEKCDSFDLSRDEKPYIQKKSKTLSSVTEINSSEYKLSLNGENTSSPAKEKSQEPIENPGSYQKTRNYLFEKPDPLDTCLQDYSSMLPSNVAEEDQEYFISVADSTLEEWTNKGQEIIDQQFQLYQEIIKKRIELSYKFKGIISVINDRADALEEQGQQLEGKIKKVKTLANEILNII",Norm. MFI,7.70%
